For 2 molecules, β-Gal activity results are on record in publication PMC2677865.

Some targets named below: BD-CK2α (UniProt Q60737); BD-CK2β (UniProt P67871); BD-CKT2 (mouse) (UniProt Q8CH19); BD-CKT2 1-137 (mouse) (UniProt Q8CH19); BD-CKT2 138-276 (mouse) (UniProt Q8CH19).
Holding throughout (assay): two-hybrid
In experiment [1] the target is GAL4-DB-CK2α′ fusion protein (mouse) (UniProt O54833).

Sequence of UniProt Q60737 (Q60737 whole entry): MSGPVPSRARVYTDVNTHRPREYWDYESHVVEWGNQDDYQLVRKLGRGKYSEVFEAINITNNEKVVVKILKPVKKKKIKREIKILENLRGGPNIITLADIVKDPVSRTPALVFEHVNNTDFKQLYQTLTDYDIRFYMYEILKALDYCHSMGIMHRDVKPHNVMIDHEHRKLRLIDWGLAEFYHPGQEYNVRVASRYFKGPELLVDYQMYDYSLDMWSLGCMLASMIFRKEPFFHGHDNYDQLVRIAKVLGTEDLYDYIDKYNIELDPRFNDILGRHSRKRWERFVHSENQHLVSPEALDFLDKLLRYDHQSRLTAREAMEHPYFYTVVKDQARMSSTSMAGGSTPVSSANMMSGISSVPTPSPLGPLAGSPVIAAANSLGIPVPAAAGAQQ
Sequence of UniProt P67871 (P67871 whole entry): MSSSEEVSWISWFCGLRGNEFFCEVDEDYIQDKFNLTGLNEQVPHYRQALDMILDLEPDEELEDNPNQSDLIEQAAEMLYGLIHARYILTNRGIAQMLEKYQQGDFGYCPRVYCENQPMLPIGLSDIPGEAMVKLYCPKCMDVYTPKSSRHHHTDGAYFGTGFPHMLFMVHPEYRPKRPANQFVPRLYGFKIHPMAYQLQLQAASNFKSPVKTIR

For “CKT2 (CK2 Target protein 2), full length, in pACT2 (from UniProt Q8CH19 1-720) (natural protein)”, the β-Gal activity with BD-CK2α was 1; with BD-CK2β, less than 0.05; in experiment [1] it was 5.8.

B1: CK2α′ as the active (activation) domain fusion (natural protein)
chain: MPGPAAGSRARVYAEVNSLRSREYWDYEAHVPSWGNQDDYQLVRKLGRGKYSEVFEAINITNNERVVVKILKPVKKKKIKREVKILENLRGGTNIIKLIDTVKDPVSKTPALVFEYINNTDFKQLYQILTDFDIRFYMYELLKALDYCHSKGIMHRDVKPHNVMIDHQQKKLRLIDWGLAEFYHPAQEYNVRVASRYFKGPELLVDYQMYDYSLDMWSLGCMLASMIFRKEPFFHGQDNYDQLVRIAKVLGTDELYGYLKKYHIDLDPHFNDILGQHSRKRWENFIHSENRHLVSPEALDLLDKLLRYDHQQRLTAKEAMEHPYFYPVVKEQSQPCAENTVLSSGLTAAR
In the case of B1, the β-Gal activity came to 5.2 with BD-CKT2 (mouse), 2.8 with BD-CKT2 1-137 (mouse) and 6.5 in the experiment with BD-CKT2 138-276 (mouse).
